# Columns and labels:
# [1] = target: Recombinant SARS-CoV-2 spike (S) protein (SARS-CoV-2) (UniProt P0DTC2)
# [2] = target: Recombinant SARS-CoV-2 spike (S) protein (SARS-CoV-2) (UniProt P0DTC2); remark: listed apart in the source
substance,measurement,setting,value
Human complement factor H (from UniProt P08603 19-1231) (natural protein),"cell binding assay: binding of SARS-CoV-2 S lentiviral pseudoparticles pre-treated with FH (20 ug/ml) to A549-hACE2+TMPRSS2 cells, decrease against untreated pseudoparticles",[1],35%
same,"luciferase reporter activity: entry of SARS-CoV-2 S lentiviral pseudoparticles pre-treated with FH (20 ug/ml) into A549-hACE2+TMPRSS2 cells, reduction against untreated pseudoparticles",[2],25%
Human native properdin (from UniProt P27918 28-469) (natural protein),"cell binding assay: binding of SARS-CoV-2 S lentiviral pseudoparticles pre-treated with FP (20 ug/ml) to A549-hACE2+TMPRSS2 cells, increase against untreated pseudoparticles",[1],30%
same,"luciferase reporter activity: entry of SARS-CoV-2 S lentiviral pseudoparticles pre-treated with FP (20 ug/ml) into A549-hACE2+TMPRSS2 cells, increase against untreated pseudoparticles",[2],80%

# Reference: paper PMC12395051
